From article PMC6406451

Molecular target: human TRPM8 fused C-terminally to TEV-GFP-His8-tag (human), Q7Z2W7
Experiment: SDS-PAGE with in-gel GFP fluorescence; crude S. cerevisiae membranes separated by SDS-PAGE, GFP fluorescence of the fusion read in the gel
Settings: remark: other sources report otherwise

B1: human TRPM8 fused C-terminally to TEV-GFP-His8-tag, Q7Z2W7 1-1104 (natural protein)
chain: MSFRAARLSMRNRRNDTLDSTRTLYSSASRSTDLSYSESDLVNFIQANFKKRECVFFTKDSKATENVCKCGYAQSQHMEGTQINQSEKWNYKKHTKEFPTDAFGDIQFETLGKKGKYIRLSCDTDAEILYELLTQHWHLKTPNLVISVTGGAKNFALKPRMRKIFSRLIYIAQSKGAWILTGGTHYGLMKYIGEVVRDNTISRSSEENIVAIGIAAWGMVSNRDTLIRNCDAEGYFLAQYLMDDFTRDPLYILDNNHTHLLLVDNGCHGHPTVEAKLRNQLEKYISERTIQDSNYGGKIPIVCFAQGGGKETLKAINTSIKNKIPCVVVEGSGQIADVIASLVEVEDALTSSAVKEKLVRFLPRTVSRLPEEETESWIKWLKEILECSHLLTVIKMEEAGDEIVSNAISYALYKAFSTSEQDKDNWNGQLKLLLEWNQLDLANDEIFTNDRRWESADLQEVMFTALIKDRPKFVRLFLENGLNLRKFLTHDVLTELFSNHFSTLVYRNLQIAKNSYNDALLTFVWKLVANFRRGFRKEDRNGRDEMDIELHDVSPITRHPLQALFIWAILQNKKELSKVIWEQTRGCTLAALGASKLLKTLAKVKNDINAAGESEELANEYETRAVELFTECYSSDEDLAEQLLVYSCEAWGGSNCLELAVEATDQHFIAQPGVQNFLSKQWYGEISRDTKNWKIILCLFIIPLVGCGFVSFRKKPVDKHKKLLWYYVAFFTSPFVVFSWNVVFYIAFLLLFAYVLLMDFHSVPHPPELVLYSLVFVLFCDEVRQWYVNGVNYFTDLWNVMDTLGLFYFIAGIVFRLHSSNKSSLYSGRVIFCLDYIIFTLRLIHIFTVSRNLGPKIIMLQRMLIDVFFFLFLFAVWMVAFGVARQGILRQNEQRWRWIFRSVIYEPYLAMFGQVPSDVDGTTYDFAHCTFTGNESKPLCVELDEHNLPRFPEWITIPLVCIYMLSTNILLVNLLVAMFGYTVGTVQENNDQVWKFQRYFLVQEYCSRLNIPFPFIVFAYFYMVVKKCFKCCCKEKNMESSVCCFKNEDNETLAWEGVMKENYLVKINTKANDTSEEMRHRFRQLDTKLNDLKGLLKEIANKIK
  stoichiometry N: 2
